# Measurements taken from IntAct's records for PubMed 7890747.
# B1: Retinoblastoma-associated protein (Homo sapiens), P06400 (parent)
# chain: MPPKTPRKTAATAAAAAAEPPAPPPPPPPEEDPEQDSGPEDLPLVRLEFEETEEPDFTALCQKLKIPDHVRERAWLTWEKVSSVDGVLGGYIQKKKELWGICIFIAAVDLDEMSFTFTELQKNIEISVHKFFNLLKEIDTSTKVDNAMSRLLKKYDVLFALFSKLERTCELIYLTQPSSSISTEINSALVLKVSWITFLLAKGEVLQMEDDLVISFQLMLCVLDYFIKLSPPMLLKEPYKTAVIPINGSPRTPRRGQNRSARIAKQLENDTRIIEVLCKEHECNIDEVKNVYFKNFIPFMNSLGLVTSNGLPEVENLSKRYEEIYLKNKDLDARLFLDHDKTLQTDSIDSFETQRTPRKSNLDEEVNVIPPHTPVRTVMNTIQQLMMILNSASDQPSENLISYFNNCTVNPKESILKRVKDIGYIFKEKFAKAVGQGCVEIGSQRYKLGVRLYYRVMESMLKSEEERLSIQNFSKLLNDNIFHMSLLACALEVVMATYSRSTSQNLDSGTDLSFPWILNVLNLKAFDFYKVIESFIKAEGNLTREMIKHLERCEHRIMESLAWLSDSPLFDLIKQSKDREGPTDHLESACPLNLPLQNNHTAADMYLSPVRSPKKKGSTTRVNSTANAETQATSAFQTQKPLKSTSLSLFYKKVYRLAYLRLNTLCERLLSEHPELEHIIWTLFQHTLQNEYELMRDRHLDQIMMCSMYGICKVKNIDLKFKIIVTAYKDLPHAVQETFKRVLIKEEEYDSIIVFYNSVFMQRLKTNILQYASTRPPTLSPIPHIPRSPYKFPSSPLRIPGGNIYISPLKSPYKISEGLPTPTKMTPRSRILVSIGESFGTSEKFQKINQMVCNSDRVLKRSAEGSNPPKPLKKLRFDIEGSDEADGSKHLPGESKFQQKLAEMTSTRTRMQKQKMNDSMDTSNKEEK
# partner: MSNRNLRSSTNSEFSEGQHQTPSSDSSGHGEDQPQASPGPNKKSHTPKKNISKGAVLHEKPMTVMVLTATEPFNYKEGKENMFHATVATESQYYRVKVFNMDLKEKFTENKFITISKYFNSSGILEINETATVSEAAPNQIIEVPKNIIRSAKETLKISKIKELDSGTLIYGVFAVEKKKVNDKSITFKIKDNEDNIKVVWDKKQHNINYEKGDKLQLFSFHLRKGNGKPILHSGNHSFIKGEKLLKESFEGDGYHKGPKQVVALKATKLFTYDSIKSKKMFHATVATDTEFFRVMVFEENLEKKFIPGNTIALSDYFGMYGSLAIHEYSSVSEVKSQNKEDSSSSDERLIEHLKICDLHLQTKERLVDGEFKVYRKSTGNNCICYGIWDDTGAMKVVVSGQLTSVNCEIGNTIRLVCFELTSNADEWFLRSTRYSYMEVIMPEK
# Variants of: B1
# Settings: with ifi2_mouse Ifi202, Q9R002
row,effect of a mutation on the interaction,Variant
1,decreasing interaction,C706F
